Assay results reported in patent US7034007.

Key:
[1] = target: B2 bradykinin receptor (rabbit airway smooth muscle membranes) (rabbit) (UniProt Q28642); test: radioligand binding, airway smooth muscle membranes of allergic rabbits treated with B2MM mismatch oligo, 0.2 mg total
[2] = target: B2 bradykinin receptor (rabbit airway smooth muscle membranes) (rabbit) (UniProt Q28642); test: radioligand binding, airway smooth muscle membranes of allergic rabbits treated with adenosine A1 receptor antisense oligo, 0.2 mg total
[3] = target: B2 bradykinin receptor (rabbit airway smooth muscle membranes) (rabbit) (UniProt Q28642); test: radioligand binding, airway smooth muscle membranes of allergic rabbits treated with B2MM mismatch oligo, 20 mg total
[4] = target: B2 bradykinin receptor (rabbit airway smooth muscle membranes) (rabbit) (UniProt Q28642); test: radioligand binding, airway smooth muscle membranes of allergic rabbits treated with B2MM mismatch oligo, 2 mg total
[5] = target: B2 bradykinin receptor (rabbit airway smooth muscle membranes) (rabbit) (UniProt Q28642); test: radioligand binding, airway smooth muscle membranes of saline-treated control allergic rabbits
[6] = target: B2 bradykinin receptor (rabbit airway smooth muscle membranes) (rabbit) (UniProt Q28642); test: radioligand binding, airway smooth muscle membranes of allergic rabbits treated with A1MM1 mismatch control oligo, 2 mg total
[7] = target: B2 bradykinin receptor (rabbit airway smooth muscle membranes) (rabbit) (UniProt Q28642); test: radioligand binding, airway smooth muscle membranes of allergic rabbits treated with B2A bradykinin receptor antisense oligo, 20 mg total
[8] = target: B2 bradykinin receptor (rabbit airway smooth muscle membranes) (rabbit) (UniProt Q28642); test: radioligand binding, airway smooth muscle membranes of allergic rabbits treated with B2A bradykinin receptor antisense oligo, 0.2 mg total
[9] = target: B2 bradykinin receptor (rabbit airway smooth muscle membranes) (rabbit) (UniProt Q28642); test: radioligand binding, airway smooth muscle membranes of allergic rabbits treated with A1MM1 mismatch control oligo, 20 mg total
[10] = target: B2 bradykinin receptor (rabbit airway smooth muscle membranes) (rabbit) (UniProt Q28642); test: radioligand binding, airway smooth muscle membranes of allergic rabbits treated with adenosine A1 receptor antisense oligo, 20 mg total
[11] = target: B2 bradykinin receptor (rabbit airway smooth muscle membranes) (rabbit) (UniProt Q28642); test: radioligand binding, airway smooth muscle membranes of allergic rabbits treated with B2A bradykinin receptor antisense oligo, 2 mg total
[12] = target: B2 bradykinin receptor (rabbit airway smooth muscle membranes) (rabbit) (UniProt Q28642); test: radioligand binding, airway smooth muscle membranes of allergic rabbits treated with adenosine A1 receptor antisense oligo, 2 mg total

Sequence of UniProt Q28642 (Q28642 whole entry): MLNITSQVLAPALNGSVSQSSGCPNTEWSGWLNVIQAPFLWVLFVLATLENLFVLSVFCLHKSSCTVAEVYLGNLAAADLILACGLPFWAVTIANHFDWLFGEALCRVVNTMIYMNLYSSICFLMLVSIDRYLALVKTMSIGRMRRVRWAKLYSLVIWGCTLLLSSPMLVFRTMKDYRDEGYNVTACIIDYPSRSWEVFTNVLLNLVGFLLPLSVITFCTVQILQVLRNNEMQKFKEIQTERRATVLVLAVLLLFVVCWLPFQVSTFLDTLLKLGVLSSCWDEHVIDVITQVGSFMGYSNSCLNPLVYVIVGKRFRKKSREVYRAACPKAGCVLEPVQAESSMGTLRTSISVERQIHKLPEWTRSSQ

## [3H]NPC 17731 (peptide)
[1]
  Bmax: 15.1 fmol
  Kd: 0.36 nM
[2]
  Bmax: 15 fmol
  Kd: 0.34 nM
[3]
  Bmax: 14 fmol
  Kd: 0.41 nM
[4]
  Bmax: 14.8 fmol
  Kd: 0.37 nM
[5]
  Bmax: 14.2 fmol
  Kd: 0.39 nM
[6]
  Bmax: 14.6 fmol
  Kd: 0.38 nM
[7]
  Bmax: 8.7 fmol
  Kd: 0.38 nM
[8]
  Bmax: 15.1 fmol
  Kd: 0.35 nM
[9]
  Bmax: 14 fmol
  Kd: 0.35 nM
[10]
  Bmax: 14.8 fmol
  Kd: 0.39 nM
[11]
  Bmax: 11.9 fmol
  Kd: 0.34 nM
[12]
  Bmax: 15.5 fmol
  Kd: 0.41 nM
